Experimental findings from PMC5693851 are described below.

What all share (settings): glycan lost; control: wild type
Data set [1] can be described thus: fluorogenic substrate assays, lysates of transfected or conditioned HeLa.
Data set [2] in a line: conditioned medium, western blot of recipient cell lysates. A general note: Immunoblotting shows a protein as a band on a membrane.
Data set [3] can be described thus: non-reducing western blot of culture medium.
The nature of data set [4]: non-reducing western blot of recipient cell lysates.
Data set [5] is described as follows: immunofluorescence, endo/lysosomal (LAMP-1) vs Golgin-97 colocalisation.
A short description of data set [6]: non-reducing western blot of culture medium, HeLa/Hek293.

B1: cystatin F: N6162SN115Q (protein)
parent chain: MRAAGTLLAFCCLVLSTTGGPSPDTCSQDLNSRVKPGFPKTIKTNDPGVLQAARYSVEKFNNCTNDMFLFKESRITRALVQIVKGLKYMLEVEIGRTTCKKNQHLRLDDCDFQTNHTLKQTLSCYSEVWVVPWLQHFEVPVLRCH
Regarding B1, the “other: inhibition of intracellular peptidases” value in data set [1] is given as “abolishes”. Further, in data set [2], the “other: uptake by recipient cells” value is on record as “decreases”. Besides, the oligomerisation entry in data set [3] is listed as “no change”. For the same protein, the “other: proteolytic processing (dimer to monomer conversion)” value in data set [4] was “abolishes”. Moreover, the localisation_or_trafficking entry in data set [5] is “decreases”. In addition, the expression_or_secretion entry in data set [6] is reported as “no change”.

B2: cystatin F: N6162S (protein)
parent chain: MRAAGTLLAFCCLVLSTTGGPSPDTCSQDLNSRVKPGFPKTIKTNDPGVLQAARYSVEKFNNCTNDMFLFKESRITRALVQIVKGLKYMLEVEIGRTTCKKNQHLRLDDCDFQTNHTLKQTLSCYSEVWVVPWLQHFEVPVLRCH
Take B2: the “other: inhibition of intracellular peptidases” value in data set [1] is reported as “decreases”. Besides, the “other: uptake by recipient cells” value in data set [2] is “decreases”. In data set [3], the oligomerisation result was “no change”. Also, in data set [4], the “other: proteolytic processing (dimer to monomer conversion)” value was “decreases”. In addition, the localisation_or_trafficking result in data set [5] is “decreases”. For the same protein, the expression_or_secretion entry in data set [6] is “no change”.
